Data published in patent US20260193317A1, “COMBINATION THERAPY WITH ACTRIIB RECEPTOR VARIANTS AND GLP-1 AGONISTS” (35PHARMA Inc., priority 2023, published 2026).
Like-named read-outs stand apart in the source and are kept apart here.

T1: BMP-9 (Homo sapiens, UniProt Q9UK05)
T1 sequence (Q9UK05 320-429): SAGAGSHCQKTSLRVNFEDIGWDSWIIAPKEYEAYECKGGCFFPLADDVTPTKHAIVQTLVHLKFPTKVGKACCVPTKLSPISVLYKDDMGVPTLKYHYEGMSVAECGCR

B1: P1372: hActRIIB L33W, 14 aa linker, IgG1 YTE-DL Fc; SEQ ID 231 (protein)
chain: ETRECIYYNANWELERTNQSGLERCEGEQDKRWHCYASWRNSSGTIELVKKGCWLDDFNCYDRQECVATEENPQVYFCCCEGNFCNERFTHLPEAGGPEVTYEPPPTGGGGSGGGGSGGGGTHTCPPCPAPELLGGPSVFLFPPKPKDTLYITREPEVTCVVVDVSHEDPEVKFNWYVDGVEVHNAKTKPREEQYNSTYRVVSVLTVLHQDWLNGKEYKCKVSNKALPAPIEKTISKAKGQPREPQVYTLPPSRDELTKNQVSLTCLVKGFYPSDIAVEWESNGQPENNYKTTPPVLDSDGSFFLYSKLTVDKSRWQQGNVFSCSVMHEALHNHYTQKSLSLSPG

Experiments:
[1] = biological target: T1, BMP-9; experiment: Small-scale BMP-9 ELISA with CHO supernatants; type: binding; conditions: BMP-9 10 ng/mL
Experimental: Small-scale testing of ActRIIB-ECD fusion proteins. Additional investigation of a series of exemplary agents was performed using proteins expressed in CHO cells. Briefly, DNA encoding the ActRIIB-ECD-Fc fusion constructs was transfected in cells seeded in 12-well plates in a final volume of 1 ml. After 7 days, the supernatant was harvested, clarified, and the amount of expressed protein in each well was quantified using standard methods. The potency of each agent for inhibition of activin A, BMP-9 and BMP-10 was determined in three separate assays.
The next day, the plate was washed three times. […] Expressed proteins in the supernatants were diluted 1 in 2 in assay diluent (0.5% BSA, 0.05% tween-20 in PBS) and 100 μl was added to the 96-well plate in technical duplicates. After a 1.5-hour incubation at RT, the plate was washed three times. […] In this assay, a loss of signal indicates less binding of the exemplary agent to BMP-9. Results are expressed as a % of the signal obtained with wild-type ActRIIB-Fc (P75).

[2] = SEC-HPLC monomer and HMW content of purified fusion proteins; type: physicochemical; conditions: after Protein A purification
Excerpt: Given that protein aggregation can be indicative of reduced conformational stability and decreased activity, Size-Exclusion Chromatography-High Performance Liquid Chromatography (SEC-HPLC) was used to determine the purity of each ActRIIB-ECD construct. This method measured the percentage of intact monomeric species as well as the presence of aggregates and/or degradation products.
All proteins expressed efficiently in CHO and/or 293 cells and purification efficiency of each using Protein A affinity chromatography was similar.

[3] = test system: TGFβ superfamily ligands; experiment: Neutralization profile across TGFβ superfamily ligands (HEK293 and HepG2 reporter assays, summary); type: cell-based, human
Experimental: (§1) Potency testing by neutralization on cell-based assays. Characterization of the activin A, activin B, GDF-8, and GDF-11 inhibition potency (IC50) of the fusion proteins was performed using a cell-based reporter assay. TGFβ-reporter HEK293 cells were obtained from InvivoGen (San Diego, CA, cat. no. hkb-tgfb) and were maintained following the manufacturer's instructions. Briefly, cells were grown in high-glucose DMEM, containing 10% heat-inactivated FBS, 30 μg/mL blasticidin, 250 μg/mL hygromycin B, and 100 μg/mL zeocin (hereafter, “growth medium”). Once the cells reached 70-80% confluence, they were detached in growth medium by gently tapping on the flask. For all assays, cells were seeded in 96-well plates at a density of 20,000 cells per well in growth medium. Cells were left to attach for 10 minutes at room temperature (RT) prior to being transferred to a 37° C. incubator (5% CO2) overnight. The next day, treatments were prepared by combining the appropriate concentration of agent with activin A, activin B, GDF-8, or GDF-11 for 30 min at RT (shaking at 150 rpm). Treatments were conducted in high-glucose DMEM (serum-free and with no selection agents), and the final concentration of cytokine (ligand) was 0.3 nM. Growth medium was removed from the culture plates, and cells were treated with the appropriate mixes of fusion protein and cytokine. Treatment duration was for 18-22 h at 37° C. (5% CO2). All treatments were performed in technical duplicates and at least one or two independent experiments were conducted for each cytokine. At the end of the treatment period, supernatants were transferred to a new plate, and centrifuged at 300 RPM for 3 min. Forty microlitres of supernatant from each condition was transferred to a new plate, into which 180 μL of Quanti-Blue reagent (InvivoGen, cat. no. rep-qbs) was added. Quanti-Blue reagent was prepared following the manufacturer's instructions. Samples were incubated for 45 min at 37° C. At the end of the incubation, absorbance was read at 650 nm. The data were plotted in GraphPad Prism, which was used to calculate IC50 values as a non-linear regression.
Characterization of the BMP-9 and BMP-10 inhibition potency (IC50) of the fusion proteins was performed using a second cell-based reporter assay. Human hepatic HepG2 cells were transfected with a SEAP-encoding plasmid, in which SEAP expression is under the control of the murine Id1 promoter. A stable pool was generated from this transfection. Cells were grown in EMEM, containing 10% heat-inactivated FBS and 200 μg/mL zeocin (hereafter, “HepG2 growth medium”). […] For all assays, cells were seeded in 96-well plates at a confluence of 100,000 cells per well in HepG2 growth medium. Cells were left to attach for 10 minutes at RT prior to being transferred to a 37° C. incubator (5% CO2) overnight. The next day, treatments were prepared in EMEM (2.5% heat-inactivated FBS and with no selection agents) by combining the appropriate concentration of agent with BMP-9 or BMP-10 for 30 min at RT (shaking at 150 rpm). Treatments were conducted in EMEM (2.5% heat-inactivated FBS and with no selection agents), and the final concentration of BMP-9 and BMP-10 was 2 ng/mL and 40 ng/mL, respectively. HepG2 growth medium was removed from the culture plates, and cells were treated with the appropriate mixes of fusion protein and cytokine. Treatment duration was for 20-24 h at 37° C. (5% CO2). […]

[4] = biological target: GDF-8 (Homo sapiens, UniProt O14793); experiment: TGFβ-reporter HEK293 cell-based assay: GDF-8 neutralization; conditions: for IC50: read-out: CBA Potency GDF-8; for CBA potency GDF-8, potency fold-change: relative to reference (P1372 = 1)
Experimental: as §1

| Molecule | BMP-9 binding, ELISA signal relative to P75 [1] | high molecular weight (HMW) content (SEC-HPLC) [2] [%] | monomer content (SEC-HPLC) [2] [%] | improved potency on activin A, GDF-8, and GDF-11 relative to P75 [3] | impact of modifications in the Fc sequence on activin A, activin B, GDF-8, and GDF-11 potency ([3]; all ligands) | impact of modifications in the Fc sequence on BMP-9 and BMP-10 potency ([3]; both ligands) | CBA potency GDF-8, fold-change vs reference ([4]; D 0) | IC50 ([4]; D 0) [nM] | IC50 ([4]; D 7, 2-8° C.) [nM] | IC50 ([4]; D 7, RT) [nM] | CBA potency GDF-8, fold-change vs reference ([4]; D 7 after storage at 2-8° C.) | CBA potency GDF-8, fold-change vs reference ([4]; D 7 after storage at room temperature) | IC50 ([4]; D 14, 2-8° C.) [nM] | IC50 ([4]; D 14, RT) [nM] | IC50 ([4]; D 28, 2-8° C.) [nM] | IC50 ([4]; D 28, RT) [nM] | CBA potency GDF-8, potency fold-change ([4]; D 28, storage at 2-8° C.) | CBA potency GDF-8, potency fold-change ([4]; D 28, storage at room temperature) | IC50 ([4]; D 56, 2-8° C.) [nM] | IC50 ([4]; D 56, RT) [nM] |
| --- | --- | --- | --- | --- | --- | --- | --- | --- | --- | --- | --- | --- | --- | --- | --- | --- | --- | --- | --- | --- |
| P1229: hActRIIB L33W, 14 aa linker, IgG1-DL Fc; SEQ ID 211 | very low BMP-9 binding | 3 | 97 | ~ 4 fold | – | – | – | – | – | – | – | – | – | – | – | – | – | – | – | – |
| B1 | near-undetectable binding to BMP-9 | 1 | 99 | – | comparable to P1229 | comparable to P1229 | 1 (ref) | 0.27 | 0.22 | 0.24 | 1 (ref) | 1 (ref) | 0.35 | 0.36 | 0.45 | 0.44 | 1 (ref) fold | 1 (ref) fold | 0.34 | 0.36 |
